From patent US20220281959A1 (DIACCURATE, published 2022) come the findings set out here.

One may read the EC50 as the concentration giving half of the maximal effect.

For assay [1], the target named is T1, HIV-1 MN gp41 recombinant protein produced in E. coli (565-771Delta642-725) (HIV-1 MN).
T1 construct: range 565-771; Residues 642-725 are deleted; also called MN gp41 (produced in E. coli); MN gp41 protein
As to the kind of experiment: ELISA, hybridoma supernatant 1/10, coated MN gp41. Background: An ELISA detects its analyte on a solid surface through an enzyme-linked reagent.

Assay [2] has as its target T1, HIV-1 MN gp41 recombinant protein …. As to the kind of experiment: ELISA, hybridoma supernatant pure, coated MN gp41.
The target of assay [3] is T2, BSA-PEP3 peptide (HIV-1 MN strain, also: conjugated to BSA).
T2 construct: The KLH immunogen carried an added N-terminal Cys
T2 peptide: PWNASWSNKSLDDIW
As to the kind of experiment: ELISA, hybridoma supernatant 1/10, coated BSA-PEP3.

The target in assay [4] is T2, BSA-PEP3 peptide. As to the kind of experiment: ELISA, hybridoma supernatant pure, coated BSA-PEP3.
In assay [5] the target is T3, HXB2 gp41 recombinant protein (a.a. 534-681) (HIV-1 HXB2, UniProt P04578 534-681).
T3 construct: Bought; tags not described; also called ABIN1605865
As to the kind of experiment: sandwich ELISA, mAb capture, gp41 titrated, biotinylated goat pAb detection.

Assay [6] deals with T3, HXB2 gp41 recombinant protein (a.a. …). As to the kind of experiment: sandwich ELISA, 72D7 capture 10 µg/ml, HXB2 gp41 titrated, biotinylated 4G1 detection 20 µg/ml.

Ends that are not written are not given here. Some results are limits rather than exact numbers.

B1: anti-PEP3 mAb 3A2 (antibody, V domains shown)
VH: QVQLQQPGAELVKPGASVKLSCKASGYIFTNYWMHWVRQRPGQGPEWIGMIHPNRGDLHYSEKFNNKATLTVDKSSSTAYMQLNSLASEDSAVYFCARAGLGVFDYWGQGSTLTVSS
VL: DVVMTQTPLSLPVSLGDQVSMSCRSSQSIEHSNRNTYLEWYLHKPGQAPQLLIYGVSNRFTGVPDRFSGSGSGTDFTLKISRVEAEDMGVYHCLQGTHVPFTFGSGTKLEIK
Consider B1, for which the ELISA screening signal in assay [1] was found to be 2.75; in assay [2] it was 2.63; with BSA-PEP3 peptide [3], 3.06; with BSA-PEP3 peptide [4], 2.93. Moreover, the “minimal amount of gp41 detected” value in assay [5] was approximately 1 ng/mL.

B2: anti-PEP3 mAb 5E12 (antibody, V domains shown)
VH: QIQLVQSGPELKKPGETVKISCKASGYTFRTYGMSWVKQAPGKGLKWMGWINTYSGVPRYVDDFKGRFALSLETSASTAYLQINNLKSEDTATYFCVREGYSYYGSSFHTMDYWGQGTSVTVSS
VL: DIQMTQTPLTLSVTIGHPASISCKSSQSLLHTNGKIYLNWLLQRPGQSPKRLIYLVSKLDSGVPDRFSGSGSGTDFTLKISRVEAEDLGVYYCLQSTHFPQTFGGGTKLEIK
As to B2, the ELISA screening signal in assay [1] was found to be 2.71; in assay [2] it was 2.61; with BSA-PEP3 peptide [3], 3.21; in the assay with BSA-PEP3 peptide [4], 3.

B3: anti-PEP3 mAb 9B12 (antibody, V domains shown)
VH: QVQLQQSGPELVKPGASVKISCKASGYGFSDSWMNWVKQRPGKGLDWIGRIYPGDGDTDYNGKFKDKATLTADKSSTTAYMQLSSLTSEDSAVYFCAYLGHWGQGTLVTVSA
VL: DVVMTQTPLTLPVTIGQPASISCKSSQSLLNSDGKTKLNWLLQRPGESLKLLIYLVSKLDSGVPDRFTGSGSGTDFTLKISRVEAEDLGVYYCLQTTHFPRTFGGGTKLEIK
As for B3, the ELISA screening signal in assay [1] is 0.047; in assay [2] it was 0.054; with BSA-PEP3 peptide [3] it was 2.78; with BSA-PEP3 peptide [4], 2.79.

B4: anti-PEP3 gp41 mAb 4G1 (antibody, V domains shown)
VL: DVVMTQTPLSLCVSLGDQASISCRTSQSIVHSNRYTYLEWYLQKPGQPLKLLIYGIANRFSGVPDRFSGSGSGTDFTLKISRVEAEDMGVYYCLQGTHVPFTFGSGTKLEIK
V domain: QVQLQQPGAELVKPGASVKLSCKASGYIFRNYWMHWVKQRPGQGLEWIGMIHPNSDITHYNEKFKNRATLTVDKSSSTAYMQLNSLTSEDSAVYYCARGGLGVFDYWGQGTALRVSS
notes: Also used biotinylated (4G1-biot) as detection antibody; also called 4G1 anti-PEP3 mAb; 4G1 mAb
B4: the “minimal amount of gp41 detected” value in assay [5] was approximately 1 ng/mL. Also, the EC50 in assay [6] stood at 0.34 µg/mL.

B5: anti-PEP3 mAb 8D5 (antibody, V domains shown)
VH: QVQLQQPGAELIEPGTSVKLSCKASGYTFTTYWMHWVKQRPGQGLEWIGMIHPNSGDTFYNENFKNKATLTVDISSSTVYMELSSLTSEDSAVYSCVKAGTGALDYWGQGTTLTVSS
VL: DVVMTQTPLSLPVSLGDQASISCRSSQSIVHSNRYTYLEWYLQRPGQSLKLLIYGVSNRFSGVPDRFSGSGSGTDFILKISRVEAEDMGVYYCFQGTHVPFTFGSGTKLEIK
For B5, the ELISA screening signal in assay [1] was found to be 2.55; in assay [2], 2.58; in the assay with BSA-PEP3 peptide [3], 2.69; in the assay with BSA-PEP3 peptide [4], 2.51. Moreover, the “minimal amount of gp41 detected” value in assay [5] is approximately 1 ng/mL.

B6: anti-PEP3 mAb 15B4 (antibody, V domains shown)
VH: QVQLQQSGPELVRPGTSVKISCKAPGYSFTSHWMQWLRQRPGQGLEWIGEIFPGSGKTYYNEKFKDKATLTADTSSTTVYMQFSSLTSEDSAVYFCASDYDGGDYWGQGTTLTVSS
VL: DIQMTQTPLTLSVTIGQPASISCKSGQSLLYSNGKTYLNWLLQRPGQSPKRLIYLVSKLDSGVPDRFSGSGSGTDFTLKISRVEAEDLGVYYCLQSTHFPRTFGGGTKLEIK
In the case of B6, the ELISA screening signal in assay [1] is 1.45; in assay [2], 1.81; with BSA-PEP3 peptide [3], 2.59; in the assay with BSA-PEP3 peptide [4], 2.73. The “minimal amount of gp41 detected” value in assay [5] is more than 10 ng/mL.
